This is an account of results in PMC11052181, “The Post-Transcriptional Regulatory Protein CsrA Amplifies Its Targetome through Direct Interactions with Stress-Response Regulatory Hubs: The EvgA and AcnA Cases”.

Conditions in all cases: protein: recombinant; chain copies: 2; label: 5'-32P
Series [1] concerns the target T1, CsrA (Escherichia coli, UniProt P69913 1-61). The series is described as follows: EMSA; excess yeast total RNA; 0.5 nM 32P-RNA, 0-300 nM CsrA, 30 min, excess yeast total RNA; 10% native PAGE, 0.5x TBE, 4 C, 170 V; binding buffer, pH and temperature not stated (as in refs). Background: A gel shift assay detects complexes by their altered migration in electrophoresis.

Series [2] has as its target T1, CsrA. Described as above. The source holds these as a separate data set.
The target of series [3] is T1, CsrA. In words: EMSA; excess yeast total RNA; reduced curve amplitude; 0.5 nM 32P-RNA, 0-300 nM CsrA, 30 min, excess yeast total RNA; 10% native PAGE, 0.5x TBE, 4 C, 170 V; binding buffer, pH and temperature not stated (as in refs).
In series [4] the target is T1, CsrA. In words: EMSA; excess yeast total RNA; 0.5 nM 32P-RNA, 0-300 nM CsrA, 30 min, excess yeast total RNA; 10% native PAGE, 0.5x TBE, 4 C, 170 V; binding buffer, pH and temperature not stated (as in refs). The source holds these as a separate data set.

T1 sequence (P69913 whole entry): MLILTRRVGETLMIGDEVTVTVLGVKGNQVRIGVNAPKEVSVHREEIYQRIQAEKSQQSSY

B1: evgA leader WT (T7-evgA-WT) (structured_RNA)
RNA: GGGAUAAUUACUUGUCGAAUUAUCUUAAAGGAAGCUCAGAUUUUCUUAUUUUUAUUGAGAAAAUGAGAUGACGCCUUAUGUCUGUAUUACUACAGGGAGAAGGGAGAUGCUUCAUUGCAAAGGGAAUAAUCUAUGAACGCAAUAAUUAUUGAUGACCAUCCUCUUGCUAUCGCAGCAAUUCGUAAUUUAUUGAUCAAAAACGAUAUUGAAAUCUUAGCAGAGUUGACUGAAG
For orientation: Kd means a measure of binding affinity in units of concentration. Regarding B1, in series [1], the Kd was approximately 83.7 nM.

B2: evgA GGA2 mutant (GGA to AGA) (structured_RNA)
RNA: GGGAUAAUUACUUGUCGAAUUAUCUUAAAGGAAGCUCAGAUUUUCUUAUUUUUAUUGAGAAAAUGAGAUGACGCCUUAUGUCUGUAUUACUACAGAGAGAAGGGAGAUGCUUCAUUGCAAAGGGAAUAAUCUAUGAACGCAAUAAUUAUUGAUGACCAUCCUCUUGCUAUCGCAGCAAUUCGUAAUUUAUUGAUCAAAAACGAUAUUGAAAUCUUAGCAGAGUUGACUGAAG
For B2, the binding signal in series [2] is approximately 1.6 fold increase in Kd vs WT.

B3: evgA all pred. sites mutant (PBS-I + PBS-II) (structured_RNA)
RNA: GGGAUAAUUACUUGUCGAAUUUUCGUAAACGAAGCUCAGAUUUUCUUAUUUUUAUUGAGAAAAUAAGAUCACGCCUUAUGUCUGUAUUACUACAGGGAGAAGGGAGAUGCUUCAUUGCAAAGGGAAUAAUCUAUGAACCCUAUAAUUAUUGAUGACCAUCCUCUUGCUAUCGCAGCAAUUCGUAAUUUAUUGAUCAAAAACGAUAUUGAAAUCUUAGCAGAGUUGACUGAAG
As to B3, the binding signal in series [2] is approximately 1.2 fold increase in Kd vs WT.

B4: evgA GGA4 mutant (AGGGAA to AAGGGG) (structured_RNA)
RNA: GGGAUAAUUACUUGUCGAAUUAUCUUAAAGGAAGCUCAGAUUUUCUUAUUUUUAUUGAGAAAAUGAGAUGACGCCUUAUGUCUGUAUUACUACAGGGAGAAGGGAGAUGCUUCAUUGCAAAAGGGGUAAUCUAUGAACGCAAUAAUUAUUGAUGACCAUCCUCUUGCUAUCGCAGCAAUUCGUAAUUUAUUGAUCAAAAACGAUAUUGAAAUCUUAGCAGAGUUGACUGAAG
As for B4, the binding signal in series [2] was approximately 2 fold increase in Kd vs WT.

B5: evgA no GGAs mutant (structured_RNA)
RNA: GGGAUAAUUACUUGUCGAAUUAUCGUAAACGAAGCUCAGAUUUUCUUAUUUUUAUUGAGAAAAUGAGAUGACGGCUUAUGUCUGUAUUACUACAGAGAGAAGCGAGAUGCUUCAUUGCAAAAGGGGUAAUCUAUGAACGCAAUAAUUAUUGAUGACCAUCCUCUUGCUAUCGCAGCAAUUCGUAAUUUAUUGAUCAAAAACGAUAUUGAAAUCUUAGCAGAGUUGACUGAAG
For the molecule B5, the binding signal in series [3] is approximately 2.8 fold increase in Kd vs WT.

B6: acnA leader WT (T7-acnA-WT) (structured_RNA)
RNA: GGGAUAAUUCACCCUGAAGAGAAUCAGGGCUUCGCAACCCUGUCAUUAAGGAGGAGCUAUGUCGUCAACCCUACGAGAAGCCAGUAAGGACACGUUGCAGGCCAAAGAUAAAACUUACCACUACUACAGCCUGCCGCUUGCUGCUAAAUCACUGGGCG
B6: the Kd in series [1] was approximately 90.9 nM.

B7: acnA PBS-III mutant (mut3, AAAGAU to UAACUU) (structured_RNA)
RNA: GGGAUAAUUCACCCUGAAGAGAAUCAGGGCUUCGCAACCCUGUCAUUAAGGAGGAGCUAUGUCGUCAACCCUACGAGAAGCCAGUAAGGACACGUUGCAGGCCUAACUUAAAACUUACCACUACUACAGCCUGCCGCUUGCUGCUAAAUCACUGGGCG
Take B7: in series [4], the binding signal was approximately 1.6 fold increase in Kd vs WT.

B8: acnA PBS-I & PBS-III double mutant (dm-1&3) (structured_RNA)
RNA: GGGAUAAUUCACCCUGAAGAGAAUCAGGGCUUCGCAACCCUGUCAUUAACCACCAGCUAUGUGGUCAACCCUACGAGAAGCCAGUAAGGACACGUUGCAGGCCUAACUUAAAACUUACCACUACUACAGCCUGCCGCUUGCUGCUAAAUCACUGGGCG
With B8, the binding signal in series [4] is approximately 2 fold increase in Kd vs WT.

B9: acnA PBS-I mutant (mut1, GGAGGA to CCACCA) (structured_RNA)
RNA: GGGAUAAUUCACCCUGAAGAGAAUCAGGGCUUCGCAACCCUGUCAUUAACCACCAGCUAUGUGGUCAACCCUACGAGAAGCCAGUAAGGACACGUUGCAGGCCAAAGAUAAAACUUACCACUACUACAGCCUGCCGCUUGCUGCUAAAUCACUGGGCG
For the molecule B9, in series [4], the binding signal is approximately 1.7 fold increase in Kd vs WT.
